# Results from article PMC8213764, “Human intelectin-1 (ITLN1) genetic variation and intestinal expression” (Scientific Reports, 2021).
# Values joined by “and” are separate entries in the source; they are usually repeats but may differ in a detail not shown here. Equal values may be shown once.
# Target: the molecule itself
# Assay: non-reducing SDS-PAGE immunoblot; human ileal lysates (150 mM NaCl, 1% Triton X-100, 0.5% sodium deoxycholate, 0.1% SDS, 50 mM Tris pH 8.0), heated at 95 °C for 30 min without 2-mercaptoethanol, gradient SDS-PAGE (4-20%), immunoblot; oligomers stable under denaturing conditions
row,Protein,stoichiometry N
1,"Human intelectin-1 (ITLN1) V109, from V109 homozygote (VV) ileal specimens (natural protein, human (endogenous in ileum), UniProt Q8WWA0 19-298, looked up, single glycosylation site at N163, Human intelectin-1 (ITLN1) with valine at position 109 (rs2274907 A allele), endogenous in ileal mucosa; also called VV genotype; V109-ITLN1; source: endogenous, ileal specimens of V109 homozygote individuals, in lysate) TDEANTYFKEWTCSSSPSLPRSCKEIKDECPSAFDGLYFLRTENGVIYQTFCDMTSGGGGWTLVASVHENDMRGKCTVGDRWSSQQGSKAVYPEGDGNWANYNTFGSAEAATSDDYKNPGYYDIQAKDLGIWHVPNKSPMQHWRNSSLLRYRTDTGFLQTLGHNLFGIYQKYPVKYGEGKCWTDNGPVIPVVYDFGDAQKTASYYSPYGQREFTAGFVQFRVFNNERAANALCAGMRVTGCNTEHHCIGGGGYFPEASPQQCGDFSGFDWSGYGTHVGYS",3 and 6
2,"Human intelectin-1 (ITLN1) D109, from D109 homozygote (DD) ileal specimens (natural protein, human (endogenous in ileum), UniProt Q8WWA0 19-298, looked up, single glycosylation site at N163, Human intelectin-1 (ITLN1), natural missense variant rs2274907 (T allele) with aspartic acid at position 109, endogenous in ileal mucosa; Natural allele (rs2274907 T); also called DD genotype; D109-ITLN1; source: endogenous, ileal specimens of D109 homozygote individuals, in lysate) TDEANTYFKEWTCSSSPSLPRSCKEIKDECPSAFDGLYFLRTENGVIYQTFCDMTSGGGGWTLVASVHENDMRGKCTVGDRWSSQQGSKADYPEGDGNWANYNTFGSAEAATSDDYKNPGYYDIQAKDLGIWHVPNKSPMQHWRNSSLLRYRTDTGFLQTLGHNLFGIYQKYPVKYGEGKCWTDNGPVIPVVYDFGDAQKTASYYSPYGQREFTAGFVQFRVFNNERAANALCAGMRVTGCNTEHHCIGGGGYFPEASPQQCGDFSGFDWSGYGTHVGYS",3 and 6
